Data reported in publication doi:10.1101/067827 (bioRxiv, 2016).

Target: the molecule itself
Experiment: SEC

B1: MCAK-His6 (purified full-length MCAK) (enzyme, UniProt Q99661 1-725, looked up)
chain: MAMDSSLQARLFPGLAIKIQRSNGLIHSANVRTVNLEKSCVSVEWAEGGATKGKEIDFDDVAAINPELLQLLPLHPKDNLPLQENVTIQKQKRRSVNSKIPAPKESLRSRSTRMSTVSELRITAQENDMEVELPAAANSRKQFSVPPAPTRPSCPAVAEIPLRMVSEEMEEQVHSIRGSSSANPVNSVRRKSCLVKEVEKMKNKREEKKAQNSEMRMKRAQEYDSSFPNWEFARMIKEFRATLECHPLTMTDPIEEHRICVCVRKRPLNKQELAKKEIDVISIPSKCLLLVHEPKLKVDLTKYLENQAFCFDFAFDETASNEVVYRFTARPLVQTIFEGGKATCFAYGQTGSGKTHTMGGDLSGKAQNASKGIYAMASRDVFLLKNQPCYRKLGLEVYVTFFEIYNGKLFDLLNKKAKLRVLEDGKQQVQVVGLQEHLVNSADDVIKMIDMGSACRTSGQTFANSNSSRSHACFQIILRAKGRMHGKFSLVDLAGNERGADTSSADRQTRMEGAEINKSLLALKECIRALGQNKAHTPFRESKLTQVLRDSFIGENSRTCMIATISPGISSCEYTLNTLRYADRVKELSPHSGPSGEQLIQMETEEMEACSNGALIPGNLSKEEEELSSQMSSFNEAMTQIRELEEKAMEELKEIIQQGPDWLELSEMTEQPDYDLETFVNKAESALAQQAKHFSALRDVIKALRLAMQLEEQASRQISSKKRPQ
stoichiometry N: 2
